Target: truncated APC mutant in SW480 cells (human) (UniProt P25054)
Assay: cell-based or functional assay

Chain of UniProt P25054 (P25054 2-1337, change not shown): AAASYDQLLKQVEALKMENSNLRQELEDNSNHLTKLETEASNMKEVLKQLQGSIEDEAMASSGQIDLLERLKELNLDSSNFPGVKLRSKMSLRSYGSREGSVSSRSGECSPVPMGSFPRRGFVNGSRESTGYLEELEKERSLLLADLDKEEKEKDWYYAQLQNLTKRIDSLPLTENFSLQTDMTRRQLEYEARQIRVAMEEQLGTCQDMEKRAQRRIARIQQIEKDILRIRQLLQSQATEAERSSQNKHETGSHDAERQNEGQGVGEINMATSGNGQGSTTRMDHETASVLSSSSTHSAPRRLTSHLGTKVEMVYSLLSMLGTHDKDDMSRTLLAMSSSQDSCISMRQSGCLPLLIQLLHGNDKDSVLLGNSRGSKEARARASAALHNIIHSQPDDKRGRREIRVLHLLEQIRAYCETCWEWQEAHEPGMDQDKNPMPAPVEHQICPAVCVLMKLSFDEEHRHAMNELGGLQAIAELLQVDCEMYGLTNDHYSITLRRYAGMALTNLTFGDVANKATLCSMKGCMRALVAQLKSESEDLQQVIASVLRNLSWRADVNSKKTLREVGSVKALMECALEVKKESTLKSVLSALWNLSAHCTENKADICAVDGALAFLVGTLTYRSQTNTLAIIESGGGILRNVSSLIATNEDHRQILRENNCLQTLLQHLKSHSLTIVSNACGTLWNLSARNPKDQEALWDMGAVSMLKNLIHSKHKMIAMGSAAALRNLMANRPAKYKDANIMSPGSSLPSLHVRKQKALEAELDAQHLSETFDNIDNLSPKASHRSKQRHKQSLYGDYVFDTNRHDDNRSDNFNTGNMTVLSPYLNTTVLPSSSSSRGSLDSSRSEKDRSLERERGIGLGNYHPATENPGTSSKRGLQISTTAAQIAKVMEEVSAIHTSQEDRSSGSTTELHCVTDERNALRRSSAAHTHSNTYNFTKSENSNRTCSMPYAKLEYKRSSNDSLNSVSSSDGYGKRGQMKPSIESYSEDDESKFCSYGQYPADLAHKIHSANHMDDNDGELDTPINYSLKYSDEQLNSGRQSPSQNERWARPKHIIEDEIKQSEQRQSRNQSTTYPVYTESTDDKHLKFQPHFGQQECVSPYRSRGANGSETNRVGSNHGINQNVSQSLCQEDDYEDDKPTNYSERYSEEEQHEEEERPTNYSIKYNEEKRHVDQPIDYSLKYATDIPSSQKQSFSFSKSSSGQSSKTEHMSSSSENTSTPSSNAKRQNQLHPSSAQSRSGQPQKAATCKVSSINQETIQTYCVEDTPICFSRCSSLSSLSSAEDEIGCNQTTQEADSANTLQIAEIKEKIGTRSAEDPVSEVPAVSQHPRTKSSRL

migration of SW480 cells relative to parental or Mock cells (% of parental or Mock cells) | decrease of migration of SW480 cells [% decrease] | Substance
50 | – | Asef-ABR expressed in cells from a plasmid (from UniProt Q9NR80 73-126)
– | 40 | Asef-ΔDH (mutant that lacks the DH domain (GEF domain) of Asef) (from UniProt Q9NR80 1-619)

— patent publication US20060067919A1
